Target: WISp39 (UniProt Q9UIM3)
Assay: anti-GFP co-IP, Western blot
Conditions: reference: wild type; sites S2

Coronin 1B (from UniProt Q9BR76) S2A
binding against the reference: lost

— PMC4384738
